Measured values: publication doi:10.1101/2024.05.28.596221

Target: YjfP (K. pneumoniae)
Test: crystal structure

Q: How did the stoichiometry N turn out when YjfP (enzyme) was run?
A: Its stoichiometry N is 2.
